Source: patent publication US20230235080A1, “TROPHOBLAST CELL-SURFACE ANTIGEN-2 (TROP-2) ANTIBODIES” (Bionecure Therapeutics, Inc., priority 2020, published 2023)
Changes are numbered by the printed parent chain. Read-outs that look alike come from different tables or passages of the source. One block for each binder: values may come before it.

Columns and labels:
[1] = biological target: T1, human Trop-2 on Trop-2 positive cancer cells (human, UniProt P09758 27-323); assay: cell-based or functional assay
T1 sequence (looked up): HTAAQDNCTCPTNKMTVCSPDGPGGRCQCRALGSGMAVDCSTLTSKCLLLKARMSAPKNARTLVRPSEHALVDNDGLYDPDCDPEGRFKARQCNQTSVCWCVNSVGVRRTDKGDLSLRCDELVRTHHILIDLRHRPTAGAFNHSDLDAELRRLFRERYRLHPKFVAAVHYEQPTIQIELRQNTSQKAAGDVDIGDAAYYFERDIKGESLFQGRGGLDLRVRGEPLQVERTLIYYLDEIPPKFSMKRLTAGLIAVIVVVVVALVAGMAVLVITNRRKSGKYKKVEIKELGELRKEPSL

[2] = biological target: T2, human Trop-2-ECD-6His fusion protein (human, UniProt P09758 27-274); assay: antigen binding ELISA on immobilized human Trop-2-ECD-6His
T2 construct: Expressed in a human 293 cell line; also called huTrop-2; human Trop-2 antigen
T2 sequence: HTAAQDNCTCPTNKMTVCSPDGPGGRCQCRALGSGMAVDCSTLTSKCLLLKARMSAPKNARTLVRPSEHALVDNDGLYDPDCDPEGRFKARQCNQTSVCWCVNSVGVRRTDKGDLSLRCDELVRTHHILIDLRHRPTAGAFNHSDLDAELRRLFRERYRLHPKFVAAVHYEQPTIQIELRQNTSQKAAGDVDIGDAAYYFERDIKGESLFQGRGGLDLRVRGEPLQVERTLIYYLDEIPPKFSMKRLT

[3] = biological target: T1, human Trop-2 on Trop-2 positive cancer …; assay: cell-based or functional assay; remark: listed apart in the source
[4] = biological target: T2, human Trop-2-ECD-6His fusion protein; assay: antigen binding ELISA on immobilized human Trop-2-ECD-6His; remark: listed apart in the source
[5] = biological target: T3, mouse Trop-2-His (mouse, UniProt Q8BGV3 25-270); assay: ELISA on coated antigen, one antibody dilution (concentration not given), detected by GAH-HRP; y axis without a label (OD450 by the text)
T3 sequence (looked up): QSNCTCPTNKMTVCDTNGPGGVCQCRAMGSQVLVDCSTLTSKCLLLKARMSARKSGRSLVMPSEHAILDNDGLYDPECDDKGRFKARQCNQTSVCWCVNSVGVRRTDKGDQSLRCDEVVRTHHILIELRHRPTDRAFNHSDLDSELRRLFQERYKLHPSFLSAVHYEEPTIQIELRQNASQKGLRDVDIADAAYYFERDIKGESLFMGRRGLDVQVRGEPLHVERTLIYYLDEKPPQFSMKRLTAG

[6] = biological target: T4, human EPCAM-His (human, UniProt P16422 24-265); assay: as above
T4 construct: also called hEPCAM
T4 sequence (looked up): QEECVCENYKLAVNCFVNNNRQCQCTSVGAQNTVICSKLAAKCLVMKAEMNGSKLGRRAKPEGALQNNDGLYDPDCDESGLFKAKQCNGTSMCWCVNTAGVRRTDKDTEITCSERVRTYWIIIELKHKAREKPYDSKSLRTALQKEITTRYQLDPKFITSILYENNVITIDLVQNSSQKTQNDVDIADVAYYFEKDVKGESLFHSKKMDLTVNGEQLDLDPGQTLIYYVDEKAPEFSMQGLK

[7] = biological target: T1, human Trop-2 on Trop-2 positive cancer …; assay: cell-based or functional assay; remark: listed apart in the source
[8] = biological target: T2, human Trop-2-ECD-6His fusion protein; assay: antigen binding ELISA on immobilized human Trop-2-ECD-6His; remark: listed apart in the source

B1: #125-1-5 mouse H14-4/L3-4 (antibody, V domains shown)
VH: QIQLVQSGPELVKPGASVKMSCKASGYTFTTYVIHWVKQKPGQGLEWIGYINPNNDGTKYNEKFKGKATLISDKSSTTAYMEVRGLTSEDSAVYYCARPHFETHAMDYWGQGTSVTVSS
VL: DIQMTQSPSSFSVSLGDSVTITCKASEDIFNRLAWYQQKPGNAPRLLISGATSLETGVPSRFSGGGSGKEYTLSITSLQNEDVATYYCQQYWNTWTFGGGTKLEIK
Internalization rate (flow cytometry, MDA-MB-468 cells) [1]: 5.5%

B2: humanized #125-1-5 Hu1/Lu6 (antibody, V domains shown)
VH: QVQLVQSGAEVKKPGASVKVSCKASGYTFTTYVIHWVRQAPGQRLEWMGYINPNNDGTKYNEKFKGRVTITRDTSASTAYMELSSLRSEDTAVYYCARPHFETHAMDYWGQGTLVTVSS
VL: DIQMTQSPSSLSASVGDRVTITCKASEDIFNRLAWYQQKPGKAPKLLISGATSLETGVPSRFSGSGSGKDYTLTISSLQPEDFATYYCQQYWNTWTFGQGTKVEIK
notes: Humanized antibody
Internalization rate (flow cytometry, MDA-MB-468 cells) [1]: 14%
EC50 [2]: 0.003 nM

B3: humanized #125-1-5 Hu2/Lu5 (antibody, V domains shown)
VH: B2 VH with R38K, A40K, R44G, M48I
VL: B2 VL with I48L, S49Y, K69T
notes: Humanized antibody
Internalization rate (flow cytometry, MDA-MB-468 cells) [1]: 47.3%
EC50 [2]: 0.007 nM

B4: #118-2-5 mouse H4-2/L3-3 (antibody, V domains shown)
VH: QVQLKQSGPGLVAPSQSLSITCTVSGFSLTSYGVNWIRQPPGKGLEWLGVMWAGGSTNYNSALMSRLSISKDNSKSQVFLKMNSLQTDDTGMYYCARDENWDGAWFAYWGQGTLVTVS
VL: DIQMTQSPSSLAVSAGEKVTMSCKSSQSLLNSGTRKNYLAWYQQKPGQSPKLLISWASSRESGVPDRFTGSGSGTDFTLTISSVQAEDLAVYYCKQSYNLFTFGGGTKLELK
notes: The label H4-2/L3-3 is not explained
Internalization rate (flow cytometry, MDA-MB-468 cells) [3]: 28.4%
EC50 [4]: 0.024 nM
binding result [5]: no binding
binding result [6]: no binding

B5: humanized IgG #118-2-5 HuA/LuX (antibody, V domains shown)
VH: QVQLQESGPGLVKPSETLSLTCTVSGFSLTSYGVNWIRQPPGKGLEWIGVMWAGGSTNYNSALMSRVTISVDTSKNQFSLKLSSVTAADTAVYYCARDENWDGAWFAYWGQGTLVTVSS
VL: DIVMTQSPDSLAVSLGERATINCKSSQSLLNSGTRKNYLAWYQQKPGQPPKLLIYWASSRESGVPDRFSGSGSGTDFTLTISSLQAEDVAVYYCKQSYNLFTFGGGTKVEIK
notes: Full-length IgG expressed in HEK293-6E cells; also called 1 (HuA/LuX); IgG HuA/LuX
Internalization rate (flow cytometry, MDA-MB-468 cells) [3]: 70.9%
Internalization rate (flow cytometry, MDA-MB-468 cells) [7]: 96.8%
EC50 [4]: 0.142 nM
EC50 [8]: 0.39 nM
binding result [5]: no binding
binding result [6]: no binding

B6: humanized IgG #118-2-5 HuC/LuX (antibody, V domains shown)
VH: QVQLQESGPGLVKPSETLSLTCTVSGFSLTSYGVNWIRQPPGKGLEWIGVMWAGGSTNYNSALMSRLSISKDNSKSQVFLKMNSLQTDDTGMYYCARDENWDGAWFAYWGQGTLVTVSS
VL: B5 VL
notes: Full-length IgG expressed in HEK293-6E cells; also called 3 (HuC/LuX)
Internalization rate (flow cytometry, MDA-MB-468 cells) [3]: 0.9%
EC50 [4]: 0.034 nM
binding result [5]: no binding
binding result [6]: no binding

B9: humanized IgG #118-2-5 Hu(A3)/LuX (antibody, V domains shown)
VH: B5 VH with F78V
VL: B5 VL
notes: Second round of humanization
Internalization rate (flow cytometry, MDA-MB-468 cells) [7]: 55.8%
EC50 [8]: 0.31 nM

B10: humanized IgG #118-2-5 Hu(A2)/LuX (antibody, V domains shown)
VH: B5 VH with V71K
VL: B5 VL
notes: Second round of humanization
Internalization rate (flow cytometry, MDA-MB-468 cells) [7]: 14.6%
EC50 [8]: 0.37 nM

B16: humanized IgG #118-2-5 Hu(A4)/LuX (antibody, V domains shown)
VH: B5 VH with T86Q
VL: B5 VL
notes: Second round of humanization
Internalization rate (flow cytometry, MDA-MB-468 cells) [7]: 52.8%
EC50 [8]: 0.39 nM

B20: humanized IgG #118-2-5 Hu(A5)/LuX (antibody, V domains shown)
VH: B5 VH with V92M
VL: B5 VL
notes: Second round of humanization
Internalization rate (flow cytometry, MDA-MB-468 cells) [7]: 11.5%
EC50 [8]: 0.34 nM

Results, then the binder that gave them:

Internalization rate (flow cytometry, MDA-MB-468 cells) [3]: 13.2%
Internalization rate (flow cytometry, MDA-MB-468 cells) [7]: 57.3%
EC50 [4]: 0.005 nM
EC50 [8]: 0.06 nM
binding result [5]: no binding
binding result [6]: no binding
B7: humanized IgG #118-2-5 HuD/LuY (antibody, V domains shown)
VH: B5 VH with Q5K, K13A, L20I, I48L, V67L, V71K, F78V, T86Q, V92M
VL: B5 VL with D9S, I21M, N22S, Y55S, L84V, V89L
notes: Full-length IgG expressed in HEK293-6E cells; also called 8 (HuD/LuY)

Internalization rate (flow cytometry, MDA-MB-468 cells) [7]: 46.4%
EC50 [8]: 0.26 nM
B8: humanized IgG #118-2-5 HuA/Lu(X6) (antibody, V domains shown)
VH: B5 VH
VL: B5 VL with V89L
notes: Second round of humanization

Internalization rate (flow cytometry, MDA-MB-468 cells) [7]: 48.9%
EC50 [8]: 0.26 nM
B11: humanized IgG #118-2-5 HuA/Lu(X1) (antibody, V domains shown)
VH: B5 VH
VL: B5 VL with D9S
notes: Second round of humanization

Internalization rate (flow cytometry, MDA-MB-468 cells) [3]: -7.8%
EC50 [4]: 0.011 nM
binding result [5]: no binding
binding result [6]: no binding
B12: humanized IgG #118-2-5 HuD/LuX (antibody, V domains shown)
VH: B5 VH with Q5K, K13A, L20I, I48L, V67L, V71K, F78V, T86Q, V92M
VL: B5 VL
notes: Full-length IgG expressed in HEK293-6E cells; also called 4 (HuD/LuX)

Internalization rate (flow cytometry, MDA-MB-468 cells) [3]: -8.5%
EC50 [4]: 0.004 nM
binding result [5]: no binding
binding result [6]: no binding
B13: humanized IgG #118-2-5 HuB/LuY (antibody, V domains shown)
VH: B5 VH with Q5K, E6Q, K13A, E16Q, T17S, L20I
VL: B5 VL with D9S, I21M, N22S, Y55S, L84V, V89L
notes: Full-length IgG expressed in HEK293-6E cells; also called 6 (HuB/LuY)

Internalization rate (flow cytometry, MDA-MB-468 cells) [3]: 75%
EC50 [4]: 0.164 nM
binding result [5]: no binding
binding result [6]: no binding
B14: humanized IgG #118-2-5 HuB/LuX (antibody, V domains shown)
VH: B5 VH with Q5K, E6Q, K13A, E16Q, T17S, L20I
VL: B5 VL
notes: Full-length IgG expressed in HEK293-6E cells; also called 2 (HuB/LuX)

Internalization rate (flow cytometry, MDA-MB-468 cells) [7]: 61.5%
EC50 [8]: 0.12 nM
B15: humanized IgG #118-2-5 HuA/Lu(X4) (antibody, V domains shown)
VH: B5 VH
VL: B5 VL with Y55S
notes: Second round of humanization

Internalization rate (flow cytometry, MDA-MB-468 cells) [7]: 19.7%
EC50 [8]: 0.31 nM
B17: humanized IgG #118-2-5 HuA/Lu(X5) (antibody, V domains shown)
VH: B5 VH
VL: B5 VL with L84V
notes: Second round of humanization

Internalization rate (flow cytometry, MDA-MB-468 cells) [7]: 43.2%
EC50 [8]: 0.36 nM
B18: humanized IgG #118-2-5 HuA/Lu(X2) (antibody, V domains shown)
VH: B5 VH
VL: B5 VL with I21M
notes: Second round of humanization

Internalization rate (flow cytometry, MDA-MB-468 cells) [3]: 3%
EC50 [4]: 0.014 nM
binding result [5]: no binding
binding result [6]: no binding
B19: humanized IgG #118-2-5 HuC/LuY (antibody, V domains shown)
VH: B6 VH
VL: B5 VL with D9S, I21M, N22S, Y55S, L84V, V89L
notes: Full-length IgG expressed in HEK293-6E cells; also called 7 (HuC/LuY)

Internalization rate (flow cytometry, MDA-MB-468 cells) [3]: -14.7%
EC50 [4]: 0.016 nM
binding result [5]: no binding
binding result [6]: no binding
B21: humanized IgG #118-2-5 HuA/LuY (antibody, V domains shown)
VH: B5 VH
VL: B5 VL with D9S, I21M, N22S, Y55S, L84V, V89L
notes: Full-length IgG expressed in HEK293-6E cells
